This series is described as follows: Isoelectric point. It counts as physicochemical. The following applies: method not stated.

B1: Halo-Endo S2-His: endoglycosidase fusion protein: Halo tag, Endo S2 and His tag, SEQ ID NO: 1 (protein)
chain: MAEIGTGFPFDPHYVEVLGERMHYVDVGPRDGTPVLFLHGNPTSSYVWRNIIPHVAPTHRCIAPDLIGMGKSDKPDLGYFFDDHVRFMDAFIEALGLEEVVLVIHDWGSALGFHWAKRNPERVKGIAFMEFIRPIPTWDEWPEFARETFQAFRTTDVGRKLIIDQNVFIEGTLPMGVVRPLTEVEMDHYREPFLNPVDREPLWRFPNELPIAGEPANIVALVEEYMDWLHQSPVPKLLFWGTPGVLIPPAEAARLAKSLPNCKAVDIGPGLNLLQEDNPDLIGSEIARWLSTLEISGGGGGSGGGGSMDKHLLVKRTLGCVCAATLMGAALATHHDSLNTVKAEEKTVQTGKTDQQVGAKLVQEIREGKRGPLYAGYFRTWHDRASTGIDGKQQHPENTMAEVPKEVDILFVFHDHTASDSPFWSELKDSYVHKLHQQGTALVQTIGVNELNGRTGLSKDYPDTPEGNKALAAAIVKAFVTDRGVDGLDIDIEHEFTNKRTPEEDARALNVFKEIAQLIGKNGSDKSKLLIMDTTLSVENNPIFKGIAEDLDYLLRQYYGSQGGEAEVDTINSDWNQYQNYIDASQFMIGFSFFEESASKGNLWFDVNEYDPNNPEKGKDIEGTRAKKYAEWQPSTGGLKAGIFSYAIDRDGVAHVPSTYKNRTSTNLQRHEVDNISHTDYTVSRKLKTLMTEDKRYDVIDQKDIPDPALREQIIQQVGQYKGDLERYNKTLVLTGDKIQNLKGLEKLSKLQKLELRQLSNVKEITPELLPESMKKDAELVMVGMTGLEKLNLSGLNRQTLDGIDVNSITHLTSFDISHNSLDLSEKSEDRKLLMTLMEQVSNHQKITVKNTAFENQKPKGYYPQTYDTKEGHYDVDNAEHDILTDFVFGTVTKRNTFIGDEEAFAIYKEGAVDGRQYVSKDYTYEAFRKDYKGYKVHLTASNLGETVTSKVTATTDETYLVDVSDGEKVVHHMKLNIGSGAIMMENLAKGAKVIGTSGDFEQAKKIFDGEKSDRFFTWGQTNWIAFDLGEINLAKEWRLFNAETNTEIKTDSSLNVAKGRLQILKDTTIDLEKMDIKNRKEYLSNDENWTDVAQMDDAKAIFNSKLSNVLSRYWRFCVDGGASSYYPQYTELQILGQRLSNDVANTLKDHHHHHHHHHH
modifications: Halo-Endo S2-His
With B1, the isoelectric point stood at 5.5.

These data come from patent US20260108614A1, “IMMOBILIZED ENDOGLYCOSIDASE FUSION PROTEIN AND USE THEREOF” (GENEQUANTUM HEALTHCARE (SUZHOU) CO., LTD., priority 2022, published 2026).
